± gives the uncertainty stated by the source.
Assay: self-splicing fitness, log relative to wild type (ln ratio); higher = more splicing; Tetrahymena group I intron in knt gene, E. coli kanamycin selection, DiMSum; sequences stand for … in CUCUCU…GGAGGGAAAAGUUAUCAGGCAUGCACCUGGUAGCUAGUCUUUAAACCAAUAGAUUGCAUCGGUUUAAAAGGCAAGACCGUCAAAUUGCGGGAAAGGGGUCAACAGCCGUUCAGUACCAAGUCUCAGGGGAAACUUUGAGAUGGCCUUGCAAAGGGUAUGGUAAUAAGCUGACGGACAUGGUCCUAACCACGCAGCCAAGUCCUAAGUCAACAGAUCUUCUGUUGAUAUGGAUGCAGUUCACAGACUAAAUGUCGGUCGGGGAAGAUGUAUUCUUCUCAUAAGAUAUAGUCGGACCUCUCCUUAAUGGGAGCUAGCGGAUGAAGUGAUGCAACACUGGAGCCGCUGGGAACUAAUUUGUAUGCGAAAGUAUAUUGAUUAGUUUUGGAGUACUCGUGGUCG
Summary of the method: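 Library with all eight P1ex-region intron nucleotides randomised, intron inside the knt kanamycin-resistance gene on pET-22b(+), in E. coli BL21(DE3). Cells grew overnight at 37°C or 30°C on LB agar with or without 25 μg/mL kanamycin (plus 100 μg/mL carbenicillin, 50 μM IPTG, 0.2% rhamnose), in six replicate transformations. Pooled colonies were amplicon-sequenced on Illumina HiSeq 2500. DiMSum fitness is the error-weighted combination of wild-type-normalised replicate fold changes, kanamycin versus none.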

Sequence	self-splicing fitness (ln) (30 °C)	self-splicing fitness (ln) (37 °C)
GAGGAGCAAUAUUACGUCAA	-2.72 ± 0.31	–
GAGGAGCAAUAUUACGUUGA	-3.73 ± 0.42	-2.24 ± 0.33
GAGUAGCAAUAUUACGAAAG	–	-1.2 ± 0.3
GAGUAGCAAUAUUACGACCU	0.288 ± 0.14	-1.02 ± 0.16
GAGUAGCAAUAUUACGAGAC	-3.25 ± 0.43	-2.95 ± 0.48
GAGUAGCAAUAUUACGAGCG	-2.04 ± 0.075	-0.489 ± 0.077
GAGUAGCAAUAUUACGAGUU	-2.27 ± 0.095	-0.98 ± 0.1
GAGUAGCAAUAUUACGAUUG	-2.87 ± 0.25	-2.14 ± 0.19
GAGUAGCAAUAUUACGAUUU	-0.387 ± 0.086	-0.312 ± 0.1
GAGUAGCAAUAUUACGCAAA	-2.45 ± 0.44	-1.63 ± 0.22
GAGUAGCAAUAUUACGCCAA	-1.98 ± 0.43	-1.66 ± 0.32
GAGUAGCAAUAUUACGCGUA	-2.66 ± 0.33	-0.648 ± 0.29
GAGUAGCAAUAUUACGCUAA	-1.92 ± 0.15	-1.97 ± 0.2
GAGUAGCAAUAUUACGCUGG	-2.77 ± 0.29	-1.48 ± 0.25
GAGUAGCAAUAUUACGGGUA	-2.78 ± 0.35	-2.54 ± 0.26
GAGUAGCAAUAUUACGUACC	-1.54 ± 0.17	-0.923 ± 0.27
GAGUAGCAAUAUUACGUACG	-2.67 ± 0.18	0.056 ± 0.13
GAGUAGCAAUAUUACGUCAG	-2.86 ± 0.17	-2.24 ± 0.34
GAGUAGCAAUAUUACGUUCA	-0.849 ± 0.075	-0.31 ± 0.095

Sequence	self-splicing fitness (ln) (30 °C)	self-splicing fitness (ln) (37 °C)
GAGUAGCAAUAUUACGUUGA	-2.27 ± 0.27	-2.76 ± 0.36
GAUAAGCAAUAUUACGAAAU	-1.13 ± 0.13	-1.11 ± 0.15
GAUAAGCAAUAUUACGAACC	-0.954 ± 0.1	-0.647 ± 0.13
GAUAAGCAAUAUUACGAACU	-0.896 ± 0.079	-0.073 ± 0.11
GAUAAGCAAUAUUACGAAGG	-2.27 ± 0.15	-1.86 ± 0.2
GAUAAGCAAUAUUACGAAUU	-3.63 ± 0.26	-2.76 ± 0.25
GAUAAGCAAUAUUACGACUC	0.0338 ± 0.1	0.785 ± 0.13
GAUAAGCAAUAUUACGAGAU	-3.66 ± 0.21	-2.14 ± 0.21
GAUAAGCAAUAUUACGAGCU	-0.688 ± 0.11	-1.13 ± 0.12
GAUAAGCAAUAUUACGAGGA	-2.86 ± 0.29	-2.12 ± 0.27
GAUAAGCAAUAUUACGAUUG	-2.59 ± 0.11	-1.82 ± 0.18
GAUAAGCAAUAUUACGCAGG	-1.69 ± 0.13	-2.95 ± 0.21
GAUAAGCAAUAUUACGCAUC	-3.06 ± 0.23	-1.21 ± 0.35
GAUAAGCAAUAUUACGCCCA	-0.168 ± 0.13	-0.865 ± 0.14
GAUAAGCAAUAUUACGCGGG	-2.89 ± 0.11	-2.34 ± 0.12
GAUAAGCAAUAUUACGCGGU	-3.19 ± 0.25	-1.01 ± 0.19
GAUAAGCAAUAUUACGCUAG	-2.45 ± 0.15	0.0994 ± 0.13
GAUAAGCAAUAUUACGCUUA	-3.59 ± 0.31	-2.91 ± 0.23
GAUAAGCAAUAUUACGGAAC	-3.85 ± 0.42	-1.6 ± 0.18

Source: the supplement of paper PMC7877785
